These results are taken from PMC6488296.

For test [1], the target named is GFP-PIF^S-TCR (moxGFP-noF-PIF^S-TCRβ) (Aequorea victoria | A. thaliana | human) (UniProt Q8L5W7).
For test [2] the target is unchanged. This is another data set of the same source.
Test [3] has the same target. Description: flow cytometry on cells + other: calcium influx (Indo-1), fit of a mathematical model; same fit as a6; half-life ln2/(koff+ki) under continuous 660 nm light, at the high end of the range of light intensities used. (In general: In flow cytometry, cells or beads pass a laser one at a time.)
For test [4] the target is unchanged. The experiment in a line: flow cytometry on cells + other: calcium influx (Indo-1), fit of a mathematical model; surface-bound DyLight650-PhyBt on GFP-PIF^S-TCR cells (90 s, 37 C, different PhyBt concentrations and continuous 660 nm intensities) and all calcium data fitted together by maximum likelihood; PhyBt modelled as dimers, off-rates of both steps set equal; parameters are for darkness.

Chain of PhyB tetramers (fluorescently labeled streptavidin-based tetramers of PhyB_(1-651)-Avitag-His6) (P14713 1-651): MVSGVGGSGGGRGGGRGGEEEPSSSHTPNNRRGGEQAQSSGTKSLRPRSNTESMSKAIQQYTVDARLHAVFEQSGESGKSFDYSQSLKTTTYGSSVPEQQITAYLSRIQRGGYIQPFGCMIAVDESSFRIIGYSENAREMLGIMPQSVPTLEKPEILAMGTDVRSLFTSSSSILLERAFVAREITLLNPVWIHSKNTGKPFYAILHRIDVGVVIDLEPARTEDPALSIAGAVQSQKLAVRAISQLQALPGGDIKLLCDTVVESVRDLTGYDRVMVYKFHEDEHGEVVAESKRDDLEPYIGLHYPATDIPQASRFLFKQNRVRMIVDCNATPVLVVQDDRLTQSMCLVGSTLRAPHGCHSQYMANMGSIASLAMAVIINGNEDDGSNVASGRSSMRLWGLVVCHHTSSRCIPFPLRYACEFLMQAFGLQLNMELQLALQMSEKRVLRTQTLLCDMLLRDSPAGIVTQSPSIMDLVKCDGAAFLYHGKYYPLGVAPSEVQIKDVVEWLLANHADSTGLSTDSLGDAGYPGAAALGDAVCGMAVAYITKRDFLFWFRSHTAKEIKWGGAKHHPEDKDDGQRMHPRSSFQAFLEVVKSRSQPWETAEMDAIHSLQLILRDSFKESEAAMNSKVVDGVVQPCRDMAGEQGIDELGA
Chain of PhyB tetramers (fluorescently labeled streptavidin-based tetramers of PhyB_(1-651)-Avitag-His6) (P22629 25-183): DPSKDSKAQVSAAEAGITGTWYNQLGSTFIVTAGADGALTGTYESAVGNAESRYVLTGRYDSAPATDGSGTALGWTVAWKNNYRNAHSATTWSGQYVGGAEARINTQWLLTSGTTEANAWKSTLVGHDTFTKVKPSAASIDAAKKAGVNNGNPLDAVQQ

The term Kd denotes the equilibrium constant for the complex coming apart. With “PhyB tetramers (fluorescently labeled streptavidin-based tetramers of PhyB_(1-651)-Avitag-His6) (from UniProt P14713 1-651; P22629 25-183) (complex)”, in test [1], the ongoing calcium response evoked by PhyBt(660) in the dark, then continuous 660 nm light of 2% to 32% intensity; intensity threshold to maintain the response (% 660 nm intensity) is 3. The calcium influx under continuous 660 nm light of different intensities (dark to 32%) and different PhyBt concentrations; intensity threshold for a calcium response (% 660 nm intensity) in test [2] was determined as 3. Further, in test [3], the half-life of the PhyB ON-TCR complex, ln2/(koff+ki), under continuous 660 nm light was 2 s. In test [4], the Kd turned out to be 22 nM; the Q = qon/qoff, association constant of multivalent binding step (darkness), dimensionless stood at 11; the half-life of PhyB ON-PIF-TCR complex (darkness), ln(2)/koff came out at 40 s; the qon, binding rate of receptor cross-linking (second, bivalent step) is 0.19 s⁻¹.
